Biological target: T1, ヒトCD38 (SPRで注入されたCD38) (human, UniProt P28907 43-300)
T1 sequence: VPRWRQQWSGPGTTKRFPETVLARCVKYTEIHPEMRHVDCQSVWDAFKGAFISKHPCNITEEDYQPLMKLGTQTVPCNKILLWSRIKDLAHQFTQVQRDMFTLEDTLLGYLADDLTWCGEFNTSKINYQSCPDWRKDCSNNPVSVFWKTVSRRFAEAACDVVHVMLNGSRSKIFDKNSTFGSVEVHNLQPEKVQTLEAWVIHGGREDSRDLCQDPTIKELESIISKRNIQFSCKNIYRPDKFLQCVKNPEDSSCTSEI
Assay: SPR (Biacore), antibody captured on protein A, CD38 injected

B1: X02.1 (antibody, human IgG4 S228P, lambda, V domains shown)
VH: QLQLQESGPGLVKPSETLSLTCTVSGGSISSSSYYWSWIRQHPGKGLEWIGYIYYSGSTNYNPSLKSRVTISVDTLKNQISLRLTSVTAADTAVYYCARVGGAGGWPMDVWGQGTTVTVSS
VL: QAVLTQPASLSASPGESARLTCTLPSDINVRYYNIYWYQQKPGSPPRYLLYYYSDSHKGQGSGVPSRFSGSKDVSTNSGILLISGLQSEDEADYYCMTWSSNGSGVFGGGTQLTVLG
notes: X02.1 has no IFN fusion; also called 親抗体X02.1; A02.1 (X355/02-HC-L0-IFN-アルファ(A145D)IgG4) の非融合抗体
  Kd: 0.378 to 27 nM

Source: patent JP2018087218A (dated 2018)
